Consider one molecule from article PMC11393341, “The ASC inflammasome adapter governs SAA-derived protein aggregation in inflammatory amyloidosis” (EMBO Molecular Medicine, 2024).

This test deals with T1, Monomeric human ASC-His (recombinant full-length ASC) (human, UniProt Q9ULZ3 1-195).
T1 construct: ASC (apoptosis-associated speck-like protein containing a CARD), human, recombinant full-length, monomeric; The methods list ASC-His and ASC-GFP-His; also called apoptosis-associated speck-like protein containing a caspase recruitment domain; monomeric recombinant human ASC; source: E. coli BL21(DE3), purified from inclusion bodies (Nickel beads, size exclusion chromatography)
T1 sequence (Q9ULZ3 whole entry, the tested form may be a part): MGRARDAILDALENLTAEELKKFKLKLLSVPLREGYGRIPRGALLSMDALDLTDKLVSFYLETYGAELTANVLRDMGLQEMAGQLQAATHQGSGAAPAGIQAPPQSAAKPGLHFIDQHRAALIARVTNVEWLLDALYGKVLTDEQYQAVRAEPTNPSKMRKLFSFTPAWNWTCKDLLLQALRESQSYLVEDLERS
The test is described as follows: limited proteolysis-coupled mass spectrometry (LiP-MS); purified monomeric recombinant ASC incubated with monomeric recombinant human SAA1, 15 min at 37 °C in LiP buffer (100 mM HEPES pH 7.4, 150 mM KCl, 1 mM MgCl2); proteinase K 1:100 (w/w) 5 min at 37 °C; ASC peptides compared with and without SAA1. Particulars: both partners purified.

B1: recombinant human SAA1 (natural protein, UniProt P0DJI8 19-122, looked up)
chain: RSFFSFLGEAFDGARDMWRAYSDMREANYIGSDKYFHARGNYDAAKRGPGGAWAAEVITDARENIQRFFGHGAEDSLADQAANEWGRSGKDPNHFRPAGLPEKY
notes: Serum amyloid A-1 (SAA1), human, recombinant; The assay format tells the two apart; How the fibrils were made is not described; also called serum amyloid A; monomeric recombinant human SAA1
With B1, the binding result was “binds”.
